# According to PMC8580823:
# Biological target: Full-length human Nf1-23a (neurofibromin isoform 2) (human) (UniProt P21359)
# Test: cryo-EM structure; single-particle cryo-EM of purified Nf1-23a at ~0.5 mg/ml in 20 mM Tris pH 8.0, 300 mM NaCl, 2 mM DTT, grids frozen at 4 °C; native sample and sample incubated 90 min with 50 µM ZnCl2; homodimer, no symmetry imposed (C1)
# Conditions: remark: other sources report otherwise
substance,measurement,value
"Full-length human Nf1-23a (neurofibromin isoform 2), P21359 1-2839",stoichiometry N,2
